Experimental data from US20140086829A1 (BIOREC S A, published 2014).

Assays:
human GST-VEGF [1] = target: T1, human GST-VEGF (human, UniProt P15692-9 27-147); experiment: competition ELISA on coated GST-VEGF; soluble scFv 2H1 titrated; competitor phage scFv 4F2
T1 construct: also called GST-VEGF humano; not shown: GST fusion partner
T1 sequence (looked up): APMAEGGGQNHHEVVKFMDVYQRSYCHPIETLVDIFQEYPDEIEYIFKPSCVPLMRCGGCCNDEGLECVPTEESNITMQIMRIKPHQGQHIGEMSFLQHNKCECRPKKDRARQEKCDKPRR

human GST-VEGF [2] = target: T1, human GST-VEGF; experiment: competition ELISA on coated GST-VEGF; soluble scFv 2H1 titrated; competitor phage scFv 1H3
human GST-VEGF [3] = target: T1, human GST-VEGF; experiment: competition ELISA on coated GST-VEGF; soluble scFv 2H1 titrated; competitor phage scFv 2H8
human GST-VEGF [4] = target: T1, human GST-VEGF; experiment: competition ELISA on coated GST-VEGF; soluble scFv 2H1 titrated; competitor phage scFv 3E10
human GST-VEGF [5] = target: T1, human GST-VEGF; experiment: competition ELISA on coated GST-VEGF; soluble scFv 2H1 titrated; competitor phage scFv 3E1
human GST-VEGF [6] = target: T1, human GST-VEGF; experiment: competition ELISA on coated GST-VEGF; soluble scFv 2H1 titrated; competitor phage scFv 4D8
human GST-VEGF [7] = target: T1, human GST-VEGF; experiment: competition ELISA on coated GST-VEGF; soluble scFv 2H1 titrated; competitor phage scFv 2F6
human GST-VEGF [8] = target: T1, human GST-VEGF; experiment: competition ELISA on coated GST-VEGF; soluble scFv 2H1 titrated; competitor phage scFv 1H3; remark: listed apart in the source
human GST-VEGF [9] = target: T1, human GST-VEGF; experiment: competition ELISA on coated GST-VEGF; soluble scFv 2H1 titrated; competitor phage scFv L3
P64K-VEGFKDR- (human) = P64K-VEGFKDR- (human) (UniProt P15692); experiment: ELISA; antigen coated 1 µg/ml; scFv 10 µg/mL; 9E10-peroxidase
human GST-VEGF [10] = target: T1, human GST-VEGF; experiment: competition ELISA on coated GST-VEGF; soluble scFv 2H1 titrated; competitor phage scFv L2
human GST-VEGF [11] = target: T1, human GST-VEGF; experiment: competition ELISA on coated GST-VEGF; soluble scFv 2H1 titrated; competitor phage scFv 1D12
human GST-VEGF [12] = target: T1, human GST-VEGF; experiment: competition ELISA on coated GST-VEGF; soluble scFv 2H1 titrated; competitor phage scFv L3H5
human GST-VEGF [13] = target: T1, human GST-VEGF; experiment: competition ELISA on coated GST-VEGF; soluble scFv 2H1 titrated; competitor phage scFv L3H6
human GST-VEGF [14] = target: T1, human GST-VEGF; experiment: competition ELISA on coated GST-VEGF; soluble scFv 2H1 titrated; competitor phage scFv 3E4
human GST-VEGF [15] = target: T1, human GST-VEGF; experiment: competition ELISA on coated GST-VEGF; soluble scFv 2H1 titrated; competitor phage scFv 2A10
human GST-VEGF [16] = target: T1, human GST-VEGF; experiment: competition ELISA on coated GST-VEGF; soluble scFv 2H1 titrated; competitor phage scFv 4D8; remark: listed apart in the source
[17] = target: T2, isoform 165 of human VEGF-A (Peprotech) (human, UniProt P15692-4 27-191); experiment: SPR, BIAcore-X; VEGF 165 coupled to CM5 chip; scFv injected; Langmuir 1:1
T2 construct: also called human VEGF165; VEGF 165

human GST-VEGF [18] = target: T1, human GST-VEGF; experiment: competition ELISA on coated GST-VEGF; soluble scFv 2H1 titrated; competitor phage scFv 1G4
human GST-VEGF [19] = target: T1, human GST-VEGF; experiment: competition ELISA on coated GST-VEGF; soluble scFv 2H1 titrated; competitor phage scFv 4E11
human GST-VEGF [20] = target: T1, human GST-VEGF; experiment: competition ELISA on coated GST-VEGF; soluble scFv 2H1 titrated; competitor phage scFv 3E9
human GST-VEGF [21] = target: T1, human GST-VEGF; experiment: competition ELISA on coated GST-VEGF; soluble scFv 2H1 titrated; competitor phage scFv L1
human GST-VEGF [22] = target: T1, human GST-VEGF; experiment: competition ELISA on coated GST-VEGF; soluble scFv 2H1 titrated; competitor phage scFv 2H1 original
human GST-VEGF [23] = target: T1, human GST-VEGF; experiment: competition ELISA on coated GST-VEGF; soluble scFv 2H1 titrated; competitor phage scFv 4H3
human GST-VEGF [24] = target: T1, human GST-VEGF; experiment: competition ELISA on coated GST-VEGF; soluble scFv 2H1 titrated; competitor phage scFv 3E12
human GST-VEGF [25] = target: T1, human GST-VEGF; experiment: competition ELISA on coated GST-VEGF; soluble scFv 2H1 titrated; competitor phage scFv 2B12
human GST-VEGF [26] = target: T1, human GST-VEGF; experiment: competition ELISA on coated GST-VEGF; soluble scFv 2H1 titrated; competitor phage scFv 2H1 original; remark: listed apart in the source

T2 sequence (P15692 other isoform, or with tags, fused parts or gaps limits assumed): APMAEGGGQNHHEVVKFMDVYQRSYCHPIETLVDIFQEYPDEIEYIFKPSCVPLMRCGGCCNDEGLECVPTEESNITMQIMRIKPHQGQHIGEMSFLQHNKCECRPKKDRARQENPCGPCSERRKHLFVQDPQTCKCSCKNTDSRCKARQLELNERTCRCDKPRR

B1: soluble scFv 2H1 antibody fragment (scFv, from another filing)
scFv: QQVQLVQSGAEVKKPGESLKISCKGSGYSFTSYWIGWVRQMPGKGLEWMGIIYPGDSDTRYSPSFQGQVTISADKSISTAYLQWSSLKASDTAMYYCARLVVRDTEIWGQGTMVTVSSAPQAKSSGSGSESKVDQAVVTQEPSLTVSPGGTVTLTCASSIGAVTSGNYPNWFQQRPGQPPRALIYSTSNKHSWTPARFSGSLLGGKAALTLSGAQPEDEAEYYCLLSYSGARPVFGGGTKLTVLGAAAGSEQKLISEEDLNSHHHHHH
Work on B1 yielded an IC50 (human GST-VEGF [1]) of 4.98 mg/L, an IC50 (human GST-VEGF [2]) of 117 mg/L and an IC50 (human GST-VEGF [3]) of 46.6 mg/L. It also gave an IC50 (human GST-VEGF [4]) of 15.1 mg/L, an IC50 (human GST-VEGF [5]) of 21.2 mg/L and an IC50 (human GST-VEGF [6]) of 32 mg/L. The IC50 (human GST-VEGF [7]) was 119 mg/L, the IC50 (human GST-VEGF [8]) was 110 mg/L and the IC50 (human GST-VEGF [9]) was 350 mg/L. For the same binder, the absorbance at 492 nm (P64K-VEGFKDR- (human)) was 0.764, the IC50 (human GST-VEGF [10]) was 126 mg/L and the IC50 (human GST-VEGF [11]) was 58.9 mg/L. The IC50 (human GST-VEGF [12]) was 940 mg/L, the IC50 (human GST-VEGF [13]) was 978 mg/L and the IC50 (human GST-VEGF [14]) was 13.5 mg/L. The IC50 (human GST-VEGF [15]) was 35.8 mg/L, the IC50 (human GST-VEGF [16]) was 33 mg/L and the Kd [17] was 0.457 µM. The IC50 (human GST-VEGF [18]) was 57.7 mg/L, the IC50 (human GST-VEGF [19]) was 5.28 mg/L and the IC50 (human GST-VEGF [20]) was 15 mg/L. The IC50 (human GST-VEGF [21]) was 11.7 mg/L, the IC50 (human GST-VEGF [22]) was 4.89 mg/L and the IC50 (human GST-VEGF [23]) was 12.2 mg/L. The IC50 (human GST-VEGF [24]) was 18.3 mg/L, the IC50 (human GST-VEGF [25]) was 21.1 mg/L and the IC50 (human GST-VEGF [26]) was 5.08 mg/L.
